Among the data in publication PMC7589614 are Kd values, retold here.

The target in data set [1] is protein A (Staphylococcus aureus, UniProt P02976 37-485). The experiment in a line: porous silicon RIFTS (EOT) biosensor; apparent, mass-transfer limited; Hill fit R2 0.9177; Selection buffers listed (assay buffer and temperature not stated in material): AGR2 137 mM NaCl, 20 mM KCl, 10 mM Na2HPO4, 2 mM KH2PO4 pH 7.4; 6H7 50 mM K2HPO4.
Data set [2] has as its target AGR2 (UniProt O95994 21-175). Kind of data set: porous silicon RIFTS (EOT) biosensor; apparent, mass-transfer limited; Hill fit R2 0.9951; Selection buffers listed (assay buffer and temperature not stated in material): AGR2 137 mM NaCl, 20 mM KCl, 10 mM Na2HPO4, 2 mM KH2PO4 pH 7.4; 6H7 50 mM K2HPO4.
The target in data set [3] is T1, tyrosinase (Bacillus megaterium (printed …, UniProt B2ZB02 1-297)).
T1 sequence: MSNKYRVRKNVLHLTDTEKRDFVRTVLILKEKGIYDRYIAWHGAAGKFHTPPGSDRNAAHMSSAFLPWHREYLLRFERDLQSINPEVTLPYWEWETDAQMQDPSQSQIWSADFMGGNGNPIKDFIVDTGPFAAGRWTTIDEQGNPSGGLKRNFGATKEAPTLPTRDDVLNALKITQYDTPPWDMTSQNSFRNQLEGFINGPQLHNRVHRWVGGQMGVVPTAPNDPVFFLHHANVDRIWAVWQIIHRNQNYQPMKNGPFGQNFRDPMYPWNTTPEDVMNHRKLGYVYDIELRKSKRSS
The experiment in a line: porous silicon RIFTS (EOT) biosensor; apparent, mass-transfer limited; Hill fit R2 0.9731; Selection buffers listed (assay buffer and temperature not stated in material): AGR2 137 mM NaCl, 20 mM KCl, 10 mM Na2HPO4, 2 mM KH2PO4 pH 7.4; 6H7 50 mM K2HPO4.

Sequence of AGR2 (O95994 21-175): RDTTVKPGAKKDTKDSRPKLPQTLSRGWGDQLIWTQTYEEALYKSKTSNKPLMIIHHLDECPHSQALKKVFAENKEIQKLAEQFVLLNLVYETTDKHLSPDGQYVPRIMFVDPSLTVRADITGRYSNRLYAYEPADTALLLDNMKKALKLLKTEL
Sequence of protein A (P02976 37-485): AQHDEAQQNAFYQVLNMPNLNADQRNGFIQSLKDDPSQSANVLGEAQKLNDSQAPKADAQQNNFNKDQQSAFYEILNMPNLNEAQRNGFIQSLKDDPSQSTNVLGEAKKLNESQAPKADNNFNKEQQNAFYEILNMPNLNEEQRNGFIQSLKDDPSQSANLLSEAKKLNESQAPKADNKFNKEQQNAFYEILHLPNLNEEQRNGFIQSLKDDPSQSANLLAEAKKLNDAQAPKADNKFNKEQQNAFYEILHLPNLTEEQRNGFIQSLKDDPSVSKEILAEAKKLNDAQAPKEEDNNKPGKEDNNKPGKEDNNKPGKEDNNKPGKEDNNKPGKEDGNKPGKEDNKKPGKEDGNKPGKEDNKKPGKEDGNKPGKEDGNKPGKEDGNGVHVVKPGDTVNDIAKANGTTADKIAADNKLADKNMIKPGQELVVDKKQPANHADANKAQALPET

B1: anti-protein A aptamer PA#2/8[S1-58] (ssDNA)
DNA: ATACCAGCTTATTCAATTAGCAACATGAGGGGGATAGAGGGGGTGGGTTCTCTCGGCT
modifications: 3'-amino-C6
In the case of B1, the Kd in data set [1] was determined as 14 ± 1 µM.

As for TCTCGGACGCGTGTGGTCGGGTGGGAGTTGTGGGGGGGGGTGGGAGGGTT (ssDNA, 5'-amino) [anti-AGR2 aptamer], the Kd in data set [2] was found to be 21 ± 1 µM.

As to GCTATGGGTGGTCTGGTTGGGATTGGCCCCGGGAGCTGGC (ssDNA, 5'-amino) [anti-his tag aptamer 6H7], the Kd in data set [3] came to 31 ± 7 µM.
